Here are results for eight sequences from patent publication US20160193316A1 (priority 1994, published 2016).

Assay [1] deals with T1, DRB1*0301 (DR3) (Homo sapiens, UniProt P01903+P01911, A100K/A102G/A103R/A169T/F55Y/I96L/K41T/L162R/M171V/P40S/Q125H/Q178H/Q39Y/R42S/S66N/T106N/T262R/W38E/Y61H).
T1 construct: endogenous in cells; host or cells: MAT
Put plainly: HLA class II peptide binding assay (pH 4.5). As to conditions: DR3a motif peptides; unit not given; exemplary 15-mer containing the core sequence.

Assay [2] has as its target T2, DRB1*0101 (DR1) (Homo sapiens, UniProt P01903+P01911, A100R/D57E/F55L/F60I/F76Y/I96L/L162R/M171V/P40L/Q125E/R42F/V115G/Y59C).
T2 construct: endogenous in cells; host or cells: LG2
The assay can be described thus: HLA class II peptide binding assay. The conditions noted are these: for DR1 binding information: DR3a motif peptides, unit not given, exemplary 15-mer containing the core sequence; for DR1 binding data: Table XIXb, Malaria Super Motif Peptides With Binding Data.

For assay [3], the target named is T3, DRB1*1201 (DR5w12) (Homo sapiens, UniProt P01903+P01911, A100R/A169T/D57E/D86V/F55L/H45Y/K41T/L162R/M171V/P40S/Q125H/Q178H/Q39Y/Q99D/R42G/S66L/T262R/V114A/V67L/W38E/Y59H/Y61H/Y89S).
T3 construct: endogenous in cells; host or cells: Herluf
Put plainly: HLA class II peptide binding assay. The conditions noted are these: for DR5w12 binding information: DR3a motif peptides, unit not given, exemplary 15-mer containing the core sequence; for DR5w12 binding data: Table XIXb.

In assay [4] the target is T4, DRB4*0101 (DRw53) (Homo sapiens, UniProt P01903+P13762, G164S).
T4 construct: expressed in transfected cells; host or cells: L257.6 (fibroblasts)
Put plainly: HLA class II peptide binding assay (pH 5.0). The conditions noted are these: for DRw53 binding information: DR3a motif peptides, unit not given, exemplary 15-mer containing the core sequence; for DRw53 binding data: Table XIXb.

Assay [5] addresses T5, DRB5*0101 (DR2w2β2) (Homo sapiens, UniProt P01903+Q30154).
T5 construct: expressed in transfected cells; host or cells: L416.3 (fibroblasts) or GM3107
The assay is classed as binding.

In assay [6] the target is T6, DRB1*0405 (DR4w15) (Homo sapiens, UniProt P01903+P01911, A100R/A169T/D86S/F76Y/I96L/K127E/L162R/M171V/N62H/P40V/Q125Y/R42H/S133A/S149N/S66Y/V115G/V209L/W38E).
T6 construct: endogenous in cells; host or cells: KT3
Put plainly: HLA class II peptide binding assay. The conditions noted are these: for DR4w15 binding information: DR3a motif peptides, unit not given, exemplary 15-mer containing the core sequence; for DR4w15 binding data: Table XIXb.

The target in assay [7] is T7, DRB1*1101 (DR5w11) (Homo sapiens, UniProt P01903+P01911, A100R/A169T/A87E/I96F/K41T/L162R/M171V/P40S/Q125H/Q178H/Q39Y/Q99D/R42S/S66Y/T262R/V115G/W38E).
T7 construct: endogenous in cells; host or cells: Sweig
T7 sequence (P01903 26-254, other chains not shown): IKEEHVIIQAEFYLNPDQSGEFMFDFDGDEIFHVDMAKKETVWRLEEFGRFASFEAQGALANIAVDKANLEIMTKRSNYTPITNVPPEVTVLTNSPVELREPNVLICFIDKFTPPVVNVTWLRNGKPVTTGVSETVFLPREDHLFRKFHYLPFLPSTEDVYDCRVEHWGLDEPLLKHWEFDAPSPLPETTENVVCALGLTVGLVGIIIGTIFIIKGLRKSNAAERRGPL
Put plainly: biochemical. The assay is classed as binding.

In assay [8] the target is T8, DRB1*0701 (DR7) (Homo sapiens, UniProt P01903+P01911, A100R/A102G/A103Q/D57E/D86V/E43K/F76Y/K127E/L162R/M171V/P40G/Q125H/Q99D/R33Q/R42Y/R54Q/S133A/S66F/T210M/V115G/Y107V/Y59L/Y89S).
T8 construct: endogenous in cells; host or cells: Pitout
The assay can be described thus: biochemical. The assay is classed as binding.

Assay [9] deals with T9, DRB1*0401 (DR4w4) (Homo sapiens, UniProt P01903+P01911, A100K/A169T/F76Y/I96L/K127E/L162R/M171V/N62H/P40V/Q125Y/R42H/S133A/S149N/S66Y/V115G/V209L/W38E).
T9 construct: endogenous in cells; host or cells: Preiss
T9 sequence (P01903 26-254 partner, other chains not shown): as the sequence (P01903 26-254, other chains not shown) above
Put plainly: HLA class II peptide binding assay. As to conditions: for DR4w4 binding information: DR3a motif peptides, unit not given, exemplary 15-mer containing the core sequence; for DR4w4 binding data: Table XIXb.

Assay [10] concerns the target T10, DRB1*0802 (DR8w2) (Homo sapiens, UniProt P01903+P01911, A100R/A103L/A169T/F76Y/H45Y/I96F/K41T/L162R/M171V/P40S/Q125H/Q178H/Q39Y/Q99D/R218S/R42G/S66Y/V115G/W38E).
T10 construct: endogenous in cells; host or cells: OLL
The assay can be described thus: biochemical. Type of assay: binding.

T2 sequence (P01903 26-254 partner, other chains not shown): as the sequence (P01903 26-254, other chains not shown) above

The sequence INRENANQL registered a DR3 binding information in [1] of 0.0092. Further, in assay [2], the DR1 binding information is listed as 0.0770. In addition, in assay [3], the DR5w12 binding information is on record as 0.0001. The same sequence showed a DRw53 binding information in [4] of 0.0096. Further, the DR2w2β2 binding information in [5] is on record as 0.0015. The sequence further yielded a DR4w15 binding information in assay [6] of 0.0010. Moreover, in assay [7], the DR5w11 binding information was -0.0004. In addition, in [8], the DR7 binding information was -0.0003. In assay [9], the DR4w4 binding information is reported as 0.0011. In assay [10], this sequence showed a DR8w2 binding information of -0.0003.

Sequence IVDELSEDI had a DR3 binding information in assay [1] of -0.0041. In assay [2], this sequence came in with a DR1 binding information of 0.0001. In addition, the DR5w12 binding information in assay [3] is 0.0001. In addition, in [4], the DRw53 binding information is 0.0290. The sequence also returned a DR2w2β2 binding information in [5] of -0.0005. Further, in assay [6], the DR4w15 binding information amounted to 0.0017. This sequence had a DR5w11 binding information in assay [7] of -0.0002. In assay [8], this sequence yielded a DR7 binding information of -0.0003. In [9], this sequence showed a DR4w4 binding information of 0.0027. Moreover, the DR8w2 binding information in assay [10] is listed as -0.0003.

LAMKLIQQL came in with a DR1 binding data in assay [2] of 0.0015. The DR5w12 binding data in [3] was determined as 0.1300. Also, the DRw53 binding data in assay [4] was found to be 0.0350. Moreover, the DR2w2β2 binding data in assay [5] is -0.0006. In assay [6], this sequence displayed a DR4w15 binding data of 0.0013. The DR5w11 binding data in assay [7] was found to be 0.0002. The same sequence yielded a DR7 binding data in assay [8] of 0.0770. Also, the DR4w4 binding data in assay [9] was 0.0023. In addition, the DR8w2 binding data in [10] worked out at 0.0400.

In turn, LTDGIPDSI returned a DR1 binding data in [2] of 0.0001. Also, in assay [3], the DR5w12 binding data is 0.0001. Moreover, the DRw53 binding data in assay [4] turned out to be 0.0114. The sequence also yielded a DR2w2β2 binding data in assay [5] of -0.0006. Besides, the DR4w15 binding data in assay [6] is listed as -0.0014. This sequence displayed a DR5w11 binding data in assay [7] of -0.0004. In [8], this sequence returned a DR7 binding data of -0.0003. Further, the DR4w4 binding data in assay [9] came out at 0.1200. For the same sequence, the DR8w2 binding data in [10] was -0.0003.

The sequence VNDFQISKY returned a DR1 binding data in [2] of 0.0001. Further, in assay [3], the DR5w12 binding data was determined as 0.0001. In assay [4], this sequence had a DRw53 binding data of -0.0005. In [5], this sequence yielded a DR2w2β2 binding data of -0.0005. The DR4w15 binding data in [6] is on record as -0.0014. This sequence also had a DR5w11 binding data in assay [7] of -0.0002. The DR7 binding data in assay [8] was -0.0003. In [9], this sequence displayed a DR4w4 binding data of -0.0007. This sequence yielded a DR8w2 binding data in assay [10] of -0.0003.

In turn, WDEWSPCSV displayed a DR1 binding data in assay [2] of 0.0001. In assay [3], this sequence yielded a DR5w12 binding data of 0.0001. In [4], this sequence yielded a DRw53 binding data of -0.0006. In assay [5], this sequence yielded a DR2w2β2 binding data of -0.0006. The DR4w15 binding data in [6] is reported as -0.0014. The DR5w11 binding data in [7] is on record as -0.0002. Besides, in [8], the DR7 binding data was -0.0003. For the same sequence, in assay [9], the DR4w4 binding data is reported as -0.0007. Besides, the DR8w2 binding data in assay [10] is recorded as -0.0003.

Sequence YGRLEIPAI showed a DR1 binding data in [2] of 0.0004. The same sequence came in with a DR5w12 binding data in [3] of 0.0002. In addition, the DRw53 binding data in assay [4] is on record as -0.0005. Also, the DR2w2β2 binding data in [5] was -0.0005. The sequence also registered a DR4w15 binding data in [6] of 0.0170. The DR5w11 binding data in assay [7] is -0.0002. The DR7 binding data in [8] is listed as -0.0003. In [9], this sequence returned a DR4w4 binding data of -0.0007. Further, the DR8w2 binding data in assay [10] was determined as 0.0021.

Sequence YLLMDCSGS displayed a DR1 binding data in assay [2] of 0.0015. The DR5w12 binding data in assay [3] was 0.0001. The same sequence showed a DRw53 binding data in assay [4] of -0.0010. In assay [5], this sequence had a DR2w2β2 binding data of 0.0096. This sequence registered a DR4w15 binding data in [6] of -0.0014. Also, the DR5w11 binding data in assay [7] is on record as -0.0004. Besides, the DR7 binding data in assay [8] worked out at 0.0046. Besides, in assay [9], the DR4w4 binding data was 0.0150. The same sequence had a DR8w2 binding data in assay [10] of 0.0007.
